Source: publication PMC6606807

What was measured:
[1] = molecular target: PGT145 (human IgG1), as the ligand of CD16; experiment: flow cytometry on cells; details: read off a plot; for other: Binding (AUC): area under the PGT145 staining curve, parent: est. 12000; for response: parent: est. 540
[2] = molecular target: soluble SIVmac239 Env SOSIP.664 trimer, wild type (SIVmac239); experiment: cryo-EM 2-D class averages; SIVmac239 Env trimers affinity purified with PGT145, ~6 mg/ml diluted 3:1 into n-dodecyl-beta-D-maltoside, plunge frozen; ~62,000 particles

Substance	other: Binding (AUC) [1]	response [1] [gMFI]	stoichiometry N [2]
SIVmac239 Env WT R177A	1300	180	–
soluble SIVmac239 Env SOSIP.664 trimer, wild type (complex)	–	–	3
SIVmac239 Env WT K179S	46000	1500	–
SIVmac239 Env WT K181S	11000	450	–
SIVmac239 Env WT K180S	260000	6600	–
SIVmac239 Env WT N171Q	740	220	–
